Test system: BMNCs
Assay: Histochemistry (Wright-Giemsa) and immunocytochemistry for erythroid cells (TER-119)
Format: cell-based, mouse
Conditions: 7 days culture, Wright-Giemsa staining
Procedure: In order to investigate whether QGR can stimulate the differentiation of hematopoietic stem cells into erythroid cells, the morphology of cells was observed and immunocytochemistry against TER-119, the marker of erythroid progenitors, was carried out. BMNCs were harvested 7 days after incubation with either rEpo (3 units/ml) or QGR (100 or 200 μM/ml) washed with PBS, re-suspended at a concentration of 2×10^5 cells/ml in PBS and subjected (100 μl/slide) to cytospin for 5 min at 1,000 rpm (Cytospin3; Shandon, ThermoElectron, Waltham, Mass., USA). All slides were fixed using cold methanol. Wright-Giemsa stain was performed for morphologic analysis. Immunocytochemistry against TER-119 was carried out for cellular lineage with 100-fold dilution according to the manufacturer's instruction using avidin biotinylated enzyme complex kit (VECTASTAIN, Vector Laboratories and Burlingame, Calif., USA).

B1: positive control group: mouse recombinant Epo (rEpo, 3 units/ml), positive control in the erythroid differentiation tests (protein, UniProt P07321 27-192, looked up)
Erythropoietin: APPRLICDSRVLERYILEAKEAENVTMGCAEGPRLSENITVPDTKVNFYAWKRMEVEEQAIEVWQGLSLLSEAILQAQALLANSSQPPETLQLHIDKAISGLRSLTSLLRVLGAQKELMSPPDTTPPAPLRTLTVDTFCKLFRVYANFLRGKLKLYTGEVCRRGDR
- number of enucleated erythroid cells: increased

From patent publication US9289444B2, “Composition for promoting hematogenesis containing quercetin 3-O-β-(2″-galloyl)-rhamnopyranoside as active ingredient” (Chungbuk National University Industry Academic Cooperation …, priority 2011, dated 2016)
